Data reported in paper PMC2720833 (Journal of molecular biology, 2009).

What was measured:
Assay in all cases: ITC
[1] = molecular target: SOCS3 box/elonginBC ternary complex (murine | human | mouse, UniProt Q15370 1-118; P83940 17-112)
[2] = molecular target: CIS box/elonginBC ternary complex (murine | human | mouse, UniProt Q15370 1-118; P83940 17-112)
[3] = molecular target: SOCS1 box/elonginBC ternary complex (murine | human | mouse, UniProt Q15370 1-118; P83940 17-112)
[4] = molecular target: SOCS6 box/elonginBC ternary complex (murine | human | mouse, UniProt Q15370 1-118; P83940 17-112)
[5] = molecular target: SOCS2 box/elonginBC ternary complex (murine | human | mouse, UniProt Q15370 1-118; P83940 17-112)
[6] = molecular target: SOCS5 box/elonginBC ternary complex (murine | human | mouse, UniProt Q15370 1-118; P83940 17-112)
[7] = molecular target: SOCS7 box/elonginBC ternary complex (murine | human | mouse, UniProt Q15370 1-118; P83940 17-112)
[8] = molecular target: SOCS4 box/elonginBC ternary complex (murine | human | mouse, UniProt Q15370 1-118; P83940 17-112)

B1: GST-Cullin5 (NTD), N-terminal domain of murine cullin5 (Met1-Leu385) with V341R and L345D (domain or fragment)
chain: MATSNLLKNKGSLQFEDKWDFMHPIVLKLLRQESVTKQQWFDLFSDVHAVCLWDDKGSSKIHQALKEDILEFIKQAQARVLSHQDDTALLKAYIVEWRKFFTQCDILPKPFCQLEVTLLGKQSSNKKSNMEDSIVRKLMLDTWNESIFSNIKNRLQDSAMKLVHAERLGEAFDSQLVIGVRESYVNLCSNPEDKLQIYRDNFEKAYLDSTERFYRTQAPSYLQQNGVQNYMKYADAKLKEEEKRALRYLETRRECNSVEALMECCVNALVTSFKETILAECQGMIKRNETEKLHLMFSLMDKVPNGIEPMLKDLEEHIISAGLADMVAAAETITTDSEKYREQLDTLFNRFSKLVKEAFQDDPRFLTARDKAYKAVVNDATIFKL
[1]
  stoichiometry N: ~1
[2]
  Kd: ~10 nM
  stoichiometry N: ~1
[3]
  Kd: 1000 nM
  stoichiometry N: ~1
[4]
  Kd: ~10 nM
  stoichiometry N: ~1
[5]
  Kd: ~10 nM
  stoichiometry N: ~1
[6]
  Kd: ~10 nM
  stoichiometry N: ~1
[7]
  Kd: ~10 nM
  stoichiometry N: ~1
[8]
  Kd: ~10 nM
  stoichiometry N: ~1
